Assay results reported in the DeepSol protein solubility set.

Experiment: soluble on expression in E. coli; label from the status in PepcDB or PDB records

| Sequence | soluble on expression in E. coli |
| --- | --- |
| MSLDISKKSLLTPAEAAKLLHVAPTTIRHWAQIGRLPFISTPGGHRRFDRNDILSLMSTPKINVKNDFSILIIEDDKEFADMLTQFLENLFPYAKIKIAYNPFDAGDLLHTVKPDVVMLDLMMVGMDGFSICHRIKSTPATANIIVIAMTGALTDDNVSRIVALGAETCFGKPLNFTLLEKTIKQLVEQKKATSEGHHHHHH | soluble |
| MGSDKIHHHHHHMGIYMRDDILDIITLTTDFGTNEGYVGAMKGRILNILKKYNKDAKIIDISHEIKPFNIYHGAYVLLTAIPYFPPSVHVAVIDPTVGSERKSIVIETKSGYYLVGPDNGLFTYVAEKLGIKRIIKIDEERYKPSSTFHGRDVYAVVGAEILINNGYDGEELDEMVKIDETKKRVIHIDRFGNIITNIKKDEVTFKYYDTIMIKIRHKNGIEKIIKCKFVKSYFEEKNNFICLINSEGFLEISKFMDNASKLLNVDYLDEIEIIY | not soluble |
| MPRGHAGDFPPPALSVRNRPGNSGLVLETCFAQLRSGRKDHGARVRNMTAPRSIVIGGGAFAGLALALALRQGLGPEVPVIVADPALALRPSRDPRATAIVAACRRLFEALGVWDEVAPTAQPIIDMVVTDSHLEDATRPVFLTFAGEVQPGEPFAHMVENRYLVEALAKRAEAEGVELRATPVTSYDARTEAIGVTLGDGSVIDASLLVAADGAKSKLRQRAGIATYGWDYDQSGIVVTVEHERDHNGCAEEHFLPAGPFAILPLTGRRSSLVWSESRRDAERIVALPEKEFQRELEKRFGLRLGDIKPLDKPKSFPLGYFVAQSFIAPRLALIGDAAHVIHPIAGQGLNMGLRDVAALAEVVVDAARLGIDPGQVDVLERYQRWRRFDTVAMGVATNGLNFLFSNNSPLLRGIRDIGLGLVDRLPPLKGAFIRQAAGLTGEIPRLLKGEALLEHHHHHH | soluble |
| MALLREYKEIAYQWGIWKTEESPEELLALLPDPERYEQQLTLFSSPHRKLEWLSVRVLLYQLLGEEKTIEYAPSGKPHLADSSYFISISHTRGYVAVILSPVSEVGIDIEQYGQRVHKVAHKYMRPDELISEYQGEDTWSLLLHWSAKEVMFKCMDTSEVDFREHLRIMPFQVCEHGEFPAEEYRTEHKKKFMIRYLLHPDFVMTWQVTSAYSVNECDIMKKMQ | not soluble |
| MEPIWRNYPYPTYPGHHNFQFDPLLSDGSHTGVNQLGGVFVNGRPLADTVRAQIVEMSQHGTRPCDISRQLKVSHGCVSKILGRYYSTGSVRPGVIGGSKPKVATPRVVECIAGYKRANPTMFAWEIRQKLIEDQICGEENVPSVSSINRIVRNKSFMAQLAAPTSVTSSAARPSSATSHHQRSPPRGVQQHMQQSTSVQQLQQLQLTSAATVNSLMTPPAFAMPGTAYSINGLLGTLPQPSLLDDKFTNLSTQSADMSLVYSTGLVGEHDWTMRTPMVILPQNYCGQL | not soluble |
| MSLKIILPVKPISQLFPIPFVMGCEGVSAAMLLQFNNYDIKATQIMSHWPKHPTNPYKGYVGHPLLVKFGHHQTIFPDAFAPFLKQYDSRIVDGTGTSLNQLEKFIDKGQPVIIYHTSLGSKPLRRVFHFDNQPTKLVSNIHVTLLIGYDDDYYYYIDPLWSRLSKFVIFPSIIPNSKQIIKIKKHTLENSYNAPGKKCIYIDNEGHHHHHH | not soluble |
| MGSDKIHHHHHHMDFLDFEKVFSFYSKATKKGFSPFFVPALEKAEEPAGNFFLDRKGNLFSIREDFTKTVLNHRKRYSPDSQIKVWYADFVYRYSGSDLVAEYQLGLEKVPRNSLDDSLEVLEIIVESASEFFEGPVIVEIGHTGVYEDLLKEIPKDLHEKVLNLIDTKNLAEIEFLSHMKKIDLSRVEKIIEDSIYRRSPEHLKTMDLPLSVREDLLSASSFLQEKFPTVSVEIDLTLARTIEEYCGLIFTIYDTSSSRLVAAGGEYTVNGEKGVGGSIFLEGKTC | not soluble |
| MGSDKIHHHHHHMNFKDCIDSYPFILMEGALGERLKREFDLDISGTVAMADLVYQQKGRLALETLWNEYIDIAYRYQLPFLATTPTRRANKERIYMAGYNESIIADNVDFLRSIKEAANVDMYIGGLMGCKGDAYTGEEALNLEEAIDFHSWQAGLFKSAKVDFLYAGIMPVLTEAIGMAVAMSDTDIPYIISFTIQRDGKLIDGHTIDDAIHCIDNHVSNKPVCYMTNCVHPDIVYEALSHKFNQTQTVKSRFWGIQANTSQLSYKELDGANHLHTSSAADLSEAILKLKSDCHLKIFGGCCGTDSSHMEKIAKISEVT | not soluble |
| MGSSIASSLMDPTQYYSQFISLQKASLEKAKTPYQNQISSYQSRIDLYASLKNALSDSLKTMSSFTTYESKTKLATSSNETSFTVSSTSSSVNGSYSIEVQNLATADT | not soluble |
| MDPRGILKAFPKRQKIHADASSKVLAKIPRREEGEEAEEWLSSLRAHVVRTGIGRARAELFEKQIVQHGGQLCPAQGPGVTHIVVDEGMDYERALRLLRLPQLPPGAQLVKSAWLSLCLQERRLVDVAGFSIFIPSRYLDHPQPSKAEQDASIPPGTHEALLQTALSPPPPPTRPVSPPQKAKEAPNTQAQPISDDEASDGEETQVSAADLEALISGHYPTSLEGDCEPSPAPAVLDKWVCAQPSSQKATNHNLHITEKLEVLAKAYSVQGDKWRALGYAKAINALKSFHKPVTSYQEACSIPGIGKRMAEKIIEILESGHLRKLDHISESVPVLELFSNIWGAGTKTAQMWYQQGFRSLEDIRSQASLTTQQAIGLKHYSDFLERMPREEATEIEQTVQKAAQAFNSGLLCVACGSYRRGKATCGDVDVLITHPDGRSHRGIFSRLLDSLRQEGFLTDDLVSQEENGQQQKYLGVCRLPGPGRRHRRLDIIVVPYSEFACALLYFTGSAHFNRSMRALAKTKGMSLSEHALSTAVVRNTHGCKVGPGRVLPTPTEKDVFRLLGLPYREPAERDW | soluble |
| MGSDKIHHHHHHMPQRIDLRVRPEEATDEQILRKHVARQTKTDPTDIHTIIIRRRSIDARQRQVYVNLGLEVYSGSESPVEDDFSDLIYPSVEGKTAVIVVGAGPAGLFAALRLIELGLRPIILERGKSVHERRADIARIPKEGHVDPESNYGFGEGGAGAFSDGKLYTRSKKRGDITKILRILCKHGAQPSILIDAHPHIGTDRLPKVIENIRHQILAAGGEVHFSCRMESLIIHNGQVVGARDNKGREYCGPVILATGHSARDIYRYLHRNGIRMEAKGTAVGVRLEHPQALIDQLRYHNPKGRGLYLPPAEYTYTAQVEGRGVYSFCMCPGGFVVPASTAPDQTVVNGMSPANRGSRWANSGLVVEIHPEDVLSTPTNDPLALMNWIERLEGESWTQARCSLRAPAQRMTDFLSGRSSVDLPKSSYNMGLTPSRLDEWLPSFITKRIQKAFQLFDRQTKGFLTAEAQLIALESRTSSPVRILRESTSCEHPLLRGLFPCGEGAGYAGGIVSAAMDGERCAEGVASYLG | not soluble |
| MKAIITKPMCVVGDNKSTVRFETSTPNNPFVEISNQVYARLKRANAAKPFVDVKTKIKPDKAVEQIKQIEKEPNQISSETVTEETSLEKPKASKASKPSTPTPKKA | not soluble |
| MEKGWKRADLHVHTTCSFDVLPAKDLNPLSLYEKSLEIGMDFVTFTDHDTVEAYEILGWDREKLTPGAEMTLYDPEFAGHTLHINVFELDREYFSELREIAEIEHDLKSFTGYLKRHRLPFVYNHPFWFEFHRQPNPSAVPKLAKLFPVLEYNMHELKQKNELTIALAERFGKSIVATTDTHTGKMGQVYTLAKGDSFREYFRNIEKGRNYIVTGDLTRELLIEEMNTWIDLIFEKSQKNRDIKNYLTGIKSLDALVKISRSTLLNYSPRLNRTAMNLFYMISNTGLPASFYIHSEKSFAREIEKDIEINNRK | not soluble |
| SRTVALGIVAMACLVAIAHGGNFFQDAEVSWGQGRGKIVDGGRGLDLTLDRSSGSGFQSKSEYLFGKIDMQIKLVPGGWWNQELSDMSYRRMRWVQRKFMIYNYCTDAKRFPQGTPAECKLR | soluble |
| MSKVAMVTGGAQGIGRGISEKLAADGFDIAVADLPQQEEQAAETIKLIEAADQKAVFVGLDVTDKANFDSAIDEAAEKLGGFDVLVNNAGIAQIKPLLEVTEEDLKQIYSVNVFSVFFGIQAASRKFDELGVKGKIINAASIAAIQGFPILSAYSTTKFAVRGLTQAAAQELAPKGHTVNAYAPGIVGTGMWEQIDAELSKINGKPIGENFKEYSSSIALGRPSVPEDVAGLVSFLASENSNYVTGQVMLVDGGMLYN | soluble |
| MGSDKIHHHHHHMPATAYSAIHGRDIRTLKQCPPVVDAMTYGFMVLLPCDVVVDKGTFSWDWQIPEPVTQNHPRAPLSFHTPGQLAGSPFATTGQAALKFNSFWTIEVEDGWSLFATHPVNREDLPFRLVTGLVDSDRFSDGGINFPAVWTEAGFSGVLAKGTPVAQCFAVPRAAPQLEYEVFDEERQASYARTVADVLSTPGVYRKRFRARRGRSTGE | not soluble |
| MGSDKIHHHHHHMDAKTIDNRIRRAFNGIRQAFRGKIARVKAAGGVQQIQVEGLEGETVQDLEHAENFGFTSNPPAGSDCVVVPLGGKTSHGIIVTTTNGAYRITGLAEGETAVYNADGAKMVLKKGRIIEIDCETLNIKAPGGVNIDAPNVGCTAQITAEGQINGNGGMAVKGGSGTSFTGNVQMVGDLDTTGKLTNNGKNVGSDHKHNGDSGGTTSDPL | not soluble |
| MTWLTKDGRFAVYEDPFVTKLMNTIGSMTFDGLGFTLLELYRDLVISADNYFMNYVNYGETPHDVGEESIEDPIYGASYPYWWTDLGPTLVLMLYRDYVFTSNREILEKNYNKIKEIIDWLIRKDMDNDCIPDSKGGYDNSYDGTHMYGASSYIASMFLSALTAFIKMSEILDVKIDDKYYRFLECGKKTFNSLWNGKYFILWKKNDEENTSCLNSQLLGQFWCDILGLPPITDHDKINTALRSIYELNFKASKYCLTNAVREDGSVDSSTAQLRSCWPRVSFAVAAHMILRGMVKEGIEVAKREWETIKELNPFDQSSRIDAIDGKYVGLMSYIGSTSVWLLKLALDKIRLEHHHHHH | not soluble |
| MPSRVPKSIFYNQVGYLISGDKRFWIQAHEPQPFALRTPEGQAVFAGMTKPVGGNWYVGDFTALRVPGTYTLTVGTLEARVVIHRRAYRDVLEAMLRFFDYQLCGVVLPEDEAGPWAHGACHTSDAKVFGTERALACPGGWHDAGDYGKYTVPAAKAVADLLLAHEYFPAALAHVRPMRSVHRAPHLPPALEVAREEIAWLLTMQDPATGGVYHKVTTPSFPPLDTRPEDDDAPLVLSPISYAATATFCAAMAHAALVYRPFDPALSSCCADAARRAYAWLGAHEMQPFHNPDGILTGEYGDAELRDELLWASCALLRMTGDSAWARVCEPLLDLDLPWELGWADVALYGVMDYLRTPRAAVSDDVRNKVKSRLLRELDALAAMAESHPFGIPMRDDDFIWGSNMVLLNRAMAFLLAEGVGVLHPAAHTVAQRAADYLFGANPLGQCYVTGFGQRPVRHPHHRPSVADDVDHPVPGMVVGGPNRHLQDEIARAQLAGRPAMEAYIDHQDSYSTNEVAVYWNSPAVFVIAALLEARGR | soluble |
| GPGSMKLERSSCFEVQGCISCLTQASNEDACLASTMMNGAHIFHMGDLQHAQCGARQAVTHVETFPHGNFGEGAVISSSFVSYDSCFATGSSSGDIVLVSRHSKNVVQHYSFQNKAAVLSLKEVPNEPSLLLACSPTDAQIIDLETSTARINLHIPKPCVVGGTALTQNTLVVAAYDGKAMLYDVRRGHEPVVILAVPDQIISITSSPDTGAVATGTVSGRVFVLRCLEGNVREEAFSTGKERAPIRSVAMRNGYIAAGDTSAKLTCLDLKEDPKPTRYWDLHSLLTNESGPPSSGAEKLSSVTVPDTESWSLPAVMLQQSDLWAALSSTKYGVSHILAIPI | not soluble |
